Measurements published in paper PMC12685370, “Loop-mediated regulation and base flipping drive RNA cleavage by human mitochondrial PNPase” (Nucleic Acids Research, 2025).

Key:
[1] = target: T1, hPNPase (human polynucleotide phosphorylase), hPNPase-TS (Homo sapiens, UniProt Q8TCS8); experiment: cryo-EM structure; format: binding; settings: 2 mM NaH2PO4, 2 mM MgCl2, pH 8.0; active site of PH2 domain (S482-484, H450, R446), no RNA; co-substrate of phosphorolysis; also in 9NO0 with PT5 RNA
T1 construct: gene PNPT1; residues 46-783, mitochondrial targeting signal removed, C-terminal Twin-Strep-tag kept, expressed in MEXi-293E cells, homotrimer
T1 sequence (Q8TCS8 46-783): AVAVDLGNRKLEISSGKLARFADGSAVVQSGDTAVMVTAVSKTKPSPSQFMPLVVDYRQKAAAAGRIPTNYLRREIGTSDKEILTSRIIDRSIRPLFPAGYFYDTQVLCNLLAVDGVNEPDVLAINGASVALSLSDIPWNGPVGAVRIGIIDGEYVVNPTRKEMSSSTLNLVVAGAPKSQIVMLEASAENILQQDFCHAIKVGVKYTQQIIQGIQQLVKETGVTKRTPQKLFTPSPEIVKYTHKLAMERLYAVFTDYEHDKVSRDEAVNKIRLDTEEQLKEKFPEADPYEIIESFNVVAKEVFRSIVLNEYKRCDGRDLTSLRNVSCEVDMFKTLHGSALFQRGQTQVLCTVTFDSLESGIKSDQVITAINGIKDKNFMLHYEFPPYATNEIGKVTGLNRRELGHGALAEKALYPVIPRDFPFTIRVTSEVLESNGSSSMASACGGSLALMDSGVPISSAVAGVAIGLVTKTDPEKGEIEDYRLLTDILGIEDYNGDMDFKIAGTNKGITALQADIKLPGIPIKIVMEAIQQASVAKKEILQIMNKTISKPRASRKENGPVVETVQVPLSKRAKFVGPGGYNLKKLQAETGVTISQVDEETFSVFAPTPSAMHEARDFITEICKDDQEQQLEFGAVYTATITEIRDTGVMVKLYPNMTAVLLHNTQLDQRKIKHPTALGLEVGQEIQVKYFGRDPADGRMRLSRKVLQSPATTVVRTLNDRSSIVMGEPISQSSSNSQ

[2] = target: the molecule itself; experiment: cryo-EM structure; single-particle cryo-EM of 1.5 uM hPNPase-TS in RNA degradation buffer (10 mM HEPES pH 8.0, 50 mM NaCl, 2 mM MgCl2, 2 mM DTT, 2 mM NaH2PO4); apo (with Pi), RNA loading state (PT5 RNA) and pre-catalytic state (10 mM Na2SO4, 0.1 mM NaH2PO4, RNA); refined in C1
[3] = target: T2, hPNPase (human mitochondrial polynucleotide phosphorylase) (Homo sapiens, UniProt Q8TCS8 46-783); experiment: cryo-EM structure; sulfate in place of phosphate, Mg2+; pre-catalytic state, 2.2 A, 6 nt modelled; Protein SEC buffer: 20 mM HEPES-NaOH pH 8.0, 150 mM NaCl, 1 mM MgCl2, 1 mM DTT, 1% glycerol; competition as in RNA degradation assay (conditions not in material); sulfate 2 mM in the assay replacing phosphate; settings: protein: recombinant; tags: C-terminal Twin-Strep-tag; chain copies: 3; label: 5'-FAM; single strand
T2 sequence: T1 sequence (Q8TCS8 46-783)

How did the cryo-EM structure [1] turn out when `O=P(O)(O)O` [Pi, phosphate] was run?
Its cryo-EM structure is “The phosphate ion is present in each protomer and coordinated by S482-484, H450, and R446”.

B1: human polynucleotide phosphorylase (hPNPase), amino acids 46-783, with C-terminal Twin-Strep-tag (enzyme, UniProt Q8TCS8 46-783, looked up)
chain: T1 sequence (Q8TCS8 46-783)
notes: human polynucleotide phosphorylase (hPNPase), amino acids 46-783, without the N-terminal mitochondrial targeting signal; gene codon optimized for human cell lines; S1 domain not modelled in the structures; Cloned into the vector pDSG103 (IBA); Homotrimer in all cryo-EM reconstructions; also called hPNPase-TS; human mitochondrial PNPase; source: MEXi-293E cells, transfected, purified …
B1 was tested. Which “stoichiometry N” value [2] did it give?
Its value is 3.

B2: FAM_PNP_RNA_long (ssRNA)
RNA: CACAACACACACCACACACACAUAAAACAAAACAGCUACGCCAUCCUCCCCCCAAUCUA
Does B2 bind [3]?
Result: binds
